The results in this text go back to the supplement of paper PMC9112550, “Optimization of the antimicrobial peptide Bac7 by deep mutational scanning” (BMC Biology, 2022).

The test system of this data set is Escherichia coli TOP10. Kind of data set: shrunken log2 fold change of peptide-encoding DNA abundance (4.5 h post-induction vs induction); higher = less antimicrobial activity (less host growth inhibition). The conditions noted are these: time post-induction: 4.5 h; library: site-saturation at positions 5, 18, 19, 20.
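Further: peptides expressed intracellularly from a pBAD plasmid library in pooled LB shake-flask culture, induced with 0.3% L-arabinose, DNA abundance read by NGS, three biological replicates, DESeq2 with apeglm shrinkage.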

With RRIRLRPPRLPRPRPRPYHFPRP, the “shrunken log2 fold change” value was -0.26. As to RRIRQRPPRLPRPRPRPCEHPRP, the “shrunken log2 fold change” value was 0.0413. The result for RRIRDRPPRLPRPRPRPLPLPRP reads -0.0937.

With RRIRIRPPRLPRPRPRPFYRPRP, the “shrunken log2 fold change” value is -0.194. The result for RRIRQRPPRLPRPRPRPDYCPRP reads -0.163. The result for RRIRTRPPRLPRPRPRPMIMPRP reads -0.437; that for RRIRFRPPRLPRPRPRPIQCPRP, -0.105; that for RRIRHRPPRLPRPRPRPIPNPRP, 0.101. The result for RRIRCRPPRLPRPRPRPYLPPRP reads -1.2; that for RRIRNRPPRLPRPRPRPKNMPRP, -0.189; that for RRIRQRPPRLPRPRPRPLDAPRP, 0.109. On to RRIRFRPPRLPRPRPRPYRVPRP, for which the “shrunken log2 fold change” value was -0.702.

In the case of RRIRKRPPRLPRPRPRPPKNPRP, the “shrunken log2 fold change” value came out at 0.546. In the case of RRIRTRPPRLPRPRPRPVWVPRP, the “shrunken log2 fold change” value was -0.0284.

RRIRHRPPRLPRPRPRPGAQPRP: the “shrunken log2 fold change” value amounted to 0.187.

Turning to RRIRKRPPRLPRPRPRPNMEPRP, the “shrunken log2 fold change” value was -0.0503.

Regarding RRIRERPPRLPRPRPRPHIHPRP, the “shrunken log2 fold change” value is -0.135.

Consider RRIRGRPPRLPRPRPRPFVPPRP, for which the “shrunken log2 fold change” value is 0.0587.

As to RRIRTRPPRLPRPRPRPSEWPRP, the “shrunken log2 fold change” value was -0.0236. The result for RRIRFRPPRLPRPRPRPTGKPRP reads 0.205; that for RRIRWRPPRLPRPRPRPHSHPRP, -3.83e-05; that for RRIRGRPPRLPRPRPRPKTRPRP, 0.884. As for RRIRGRPPRLPRPRPRPIGFPRP, the “shrunken log2 fold change” value was determined as 0.061.

As to RRIRCRPPRLPRPRPRPLGKPRP, the “shrunken log2 fold change” value is -0.101.

Take RRIRPRPPRLPRPRPRPKTIPRP: the “shrunken log2 fold change” value was -0.0767. With RRIRHRPPRLPRPRPRPHDYPRP, the “shrunken log2 fold change” value is -0.0577. Regarding RRIRQRPPRLPRPRPRPWSEPRP, the “shrunken log2 fold change” value is -0.266.

As to RRIRARPPRLPRPRPRPPGDPRP, the “shrunken log2 fold change” value was 0.868.

As to RRIRGRPPRLPRPRPRPHNEPRP, the “shrunken log2 fold change” value stood at 0.264. The result for RRIRQRPPRLPRPRPRPLTAPRP reads 0.0683; that for RRIRNRPPRLPRPRPRPHAKPRP, -0.0658. Next, RRIRFRPPRLPRPRPRPLQPPRP: 0.104; RRIRMRPPRLPRPRPRPALGPRP: 0.625. Next, RRIRRRPPRLPRPRPRPEHVPRP: 0.232; RRIRVRPPRLPRPRPRPDCAPRP: 0.0509; RRIRDRPPRLPRPRPRPFGWPRP: 0.903.

As for RRIRARPPRLPRPRPRPFSVPRP, the “shrunken log2 fold change” value is -0.107.

Consider RRIRHRPPRLPRPRPRPTEVPRP, for which the “shrunken log2 fold change” value was -0.0182. The result for RRIRGRPPRLPRPRPRPEENPRP reads 1.21. The result for RRIRPRPPRLPRPRPRPWEKPRP reads -0.106; that for RRIRWRPPRLPRPRPRPNMFPRP, -0.0911; that for RRIRCRPPRLPRPRPRPPHYPRP, 0.638. Next, RRIRDRPPRLPRPRPRPFLCPRP: 0.0956; RRIRIRPPRLPRPRPRPMEKPRP: -0.229; RRIRDRPPRLPRPRPRPCDSPRP: -0.0465.

With RRIRRRPPRLPRPRPRPCMCPRP, the “shrunken log2 fold change” value is -0.382. For the sequence RRIRSRPPRLPRPRPRPHSDPRP, the “shrunken log2 fold change” value is -0.0834. The result for RRIRERPPRLPRPRPRPIWTPRP reads -0.0563; that for RRIRWRPPRLPRPRPRPHVGPRP, 0.0547. The result for RRIRNRPPRLPRPRPRPWTQPRP reads -0.0178. Next, RRIRCRPPRLPRPRPRPSMCPRP: -0.14. On to RRIRYRPPRLPRPRPRPKRFPRP, for which the “shrunken log2 fold change” value is 0.00705. Next, RRIRFRPPRLPRPRPRPFYYPRP: -0.777; RRIRGRPPRLPRPRPRPPFDPRP: 0.835; RRIRMRPPRLPRPRPRPPNPPRP: 0.822. With RRIRSRPPRLPRPRPRPGPIPRP, the “shrunken log2 fold change” value is 0.298.

RRIRWRPPRLPRPRPRPIKFPRP: the “shrunken log2 fold change” value was -0.285.

As for RRIRNRPPRLPRPRPRPCRQPRP, the “shrunken log2 fold change” value was -0.065.

Take RRIRERPPRLPRPRPRPESGPRP: the “shrunken log2 fold change” value is -0.0112.

For RRIRDRPPRLPRPRPRPIFHPRP, the “shrunken log2 fold change” value is -0.158. The result for RRIRIRPPRLPRPRPRPYDWPRP reads -0.593; that for RRIRYRPPRLPRPRPRPHVIPRP, -0.448. Next, RRIRMRPPRLPRPRPRPFFHPRP: -0.243; RRIRIRPPRLPRPRPRPAIIPRP: -1.09. The result for RRIRDRPPRLPRPRPRPPVQPRP reads 0.104; that for RRIRIRPPRLPRPRPRPYTEPRP, -0.512. Turning to RRIRFRPPRLPRPRPRPLDNPRP, the “shrunken log2 fold change” value is 0.0244. The result for RRIRTRPPRLPRPRPRPLLQPRP reads 0.173; that for RRIRDRPPRLPRPRPRPYYTPRP, -0.817; that for RRIRGRPPRLPRPRPRPTFPPRP, 0.347.

As to RRIRIRPPRLPRPRPRPPMYPRP, the “shrunken log2 fold change” value was -0.849.

For RRIRQRPPRLPRPRPRPQVDPRP, the “shrunken log2 fold change” value is -0.0137. The result for RRIRCRPPRLPRPRPRPHAGPRP reads 0.185; that for RRIRIRPPRLPRPRPRPERAPRP, 0.761; that for RRIRHRPPRLPRPRPRPSDYPRP, -0.343.

In the case of RRIRQRPPRLPRPRPRPWILPRP, the “shrunken log2 fold change” value is -0.00158. As for RRIRFRPPRLPRPRPRPVRKPRP, the “shrunken log2 fold change” value is -0.355. The result for RRIRLRPPRLPRPRPRPERCPRP reads 0.00413; that for RRIRLRPPRLPRPRPRPACIPRP, -0.0506. The result for RRIRFRPPRLPRPRPRPMFTPRP reads -0.123; that for RRIRARPPRLPRPRPRPDGNPRP, -0.0344; that for RRIRARPPRLPRPRPRPNCAPRP, 0.567. The result for RRIRGRPPRLPRPRPRPEYHPRP reads 0.155; that for RRIRERPPRLPRPRPRPKVTPRP, -0.114. As to RRIRERPPRLPRPRPRPCCWPRP, the “shrunken log2 fold change” value amounted to 0.185. For the sequence RRIRARPPRLPRPRPRPMGPPRP, the “shrunken log2 fold change” value came out at 0.161.

On to RRIRYRPPRLPRPRPRPNCLPRP, for which the “shrunken log2 fold change” value is -0.942. For the sequence RRIRERPPRLPRPRPRPLCRPRP, the “shrunken log2 fold change” value is -0.0964. Next, RRIRCRPPRLPRPRPRPADCPRP: -0.0557. Next, RRIRLRPPRLPRPRPRPFCHPRP: 0.0449; RRIRMRPPRLPRPRPRPCNPPRP: -0.0764.

Turning to RRIRIRPPRLPRPRPRPDVMPRP, the “shrunken log2 fold change” value was -0.17. The result for RRIRDRPPRLPRPRPRPYEGPRP reads 0.00106. As for RRIRWRPPRLPRPRPRPADWPRP, the “shrunken log2 fold change” value turned out to be 0.345. The result for RRIRARPPRLPRPRPRPMQCPRP reads 0.0593; that for RRIRIRPPRLPRPRPRPRMYPRP, -0.33. The result for RRIRGRPPRLPRPRPRPESKPRP reads 1.32; that for RRIRGRPPRLPRPRPRPSSRPRP, 0.372. Next, RRIRWRPPRLPRPRPRPFLTPRP: 2.56; RRIRDRPPRLPRPRPRPYIGPRP: -0.0691; RRIRKRPPRLPRPRPRPVFCPRP: -0.126. With RRIRKRPPRLPRPRPRPHIMPRP, the “shrunken log2 fold change” value is -0.0414. Next, RRIRDRPPRLPRPRPRPTWMPRP: 0.507. Next, RRIRNRPPRLPRPRPRPQIDPRP: -0.0557; RRIRLRPPRLPRPRPRPHVDPRP: 0.0142. The result for RRIRVRPPRLPRPRPRPVLTPRP reads 0.146; that for RRIRFRPPRLPRPRPRPNPFPRP, 0.0605. In the case of RRIRLRPPRLPRPRPRPKSWPRP, the “shrunken log2 fold change” value was found to be 0.176. Next, RRIRVRPPRLPRPRPRPTKDPRP: -0.303; RRIRRRPPRLPRPRPRPYPEPRP: 0.00427.

For the sequence RRIRMRPPRLPRPRPRPFGYPRP, the “shrunken log2 fold change” value worked out at 0.067. The result for RRIRKRPPRLPRPRPRPCVPPRP reads -0.14; that for RRIRCRPPRLPRPRPRPWHPPRP, -0.0323; that for RRIRCRPPRLPRPRPRPMFAPRP, 0.186. The result for RRIRIRPPRLPRPRPRPSPNPRP reads -0.735; that for RRIRDRPPRLPRPRPRPNCAPRP, -0.0166. Take RRIRARPPRLPRPRPRPHAQPRP: the “shrunken log2 fold change” value came to 0.122. On to RRIRKRPPRLPRPRPRPFPMPRP, for which the “shrunken log2 fold change” value was 0.0227. Next, RRIRIRPPRLPRPRPRPLGTPRP: -0.356; RRIRGRPPRLPRPRPRPRDQPRP: 1.26; RRIRCRPPRLPRPRPRPCFMPRP: -0.416. RRIRTRPPRLPRPRPRPEWYPRP: the “shrunken log2 fold change” value stood at 0.135. For the sequence RRIRYRPPRLPRPRPRPPMRPRP, the “shrunken log2 fold change” value was determined as 0.317. Next, RRIRFRPPRLPRPRPRPGEEPRP: 0.0793; RRIRWRPPRLPRPRPRPRQYPRP: -0.534.
